Experiment: label from the status in PepcDB records

Sequence	protein production
AATDIHVHFRTPGETEKEDFGSGSLSAIYGGTTYVMDMPNNRFPITDYNAFGDKLGSIDSTSFADFSLYSMETGKNAMLLDRRSIGLKVYLGGSTNSTGTEVIEEGDIRKINEMNYPVVFHGESERCLKTHQMEEKNLRDHNLARPIDCEIEAAKYVSGLDIKTKIMAHVSSPDVTGNFLREVTPHHLLLNDEMPLGSFGKVNPPLRDSRTQKRLLDDYISGKFDILSSDHAPHTEDDKREFEFAKSGIIGVETRVPLFLALAQKKIVPLDVLYRTAIENPPSIFGIKKGKIEIGYDADFMVIDFTSMKRINDNRLHSKFPVSPFNGMDAI	failed
MGRMSEKLGQDIKQSIFKVPPLIQKSDIDPEHCRVSAQLDDNVDDNIPLRVMLLLMDEVFDLKDRNQWLRRNIKNLLQQLIKATYGDTINRKIVDHVDNMTSPEQVSDYVKRFRDSYWPNGILAETPPRRDKNLRMRTRVAAKTTLLGIMPDELKHIIGADTTRKGILRVFEMFQHQPLNRRLVYVFLEGFLETLFPQYKFPELFEKLHSRSPRVLKYSHKLRSLQKR	failed
MSPIVTAILVASNLGLIFLLMTVPLGLRTVRVSRVIAMDRGRLWQALWPLGSDAGWSGEILSAEPLDGEGVSRIMLSWEGRDGEPIERRARFDDVVEGSRFSMRVLEDTALDASFWKDYRETAELVSEGSGTRVTLGRTDRYRGVAFLVFRYFAMRRELSKLQRWAMTGQYRKGGWFEHPLSQVGFAVLSALILWPFFGLHLGGLALAAILTSVVALHELGHMAAFRLMGHRKARMIFIPLLGGIAIGGRPYNSRFEVAFVALMGAGFSAFLVPIAIAASAFAGSEGHKAAAALLAALAGCAALFNIANLVPVWKFDGGQVLRQICPGPVALALASFFLLSAFLAVGWEAGFSSGFLLATGAVFSILSLLTMGSGVKPRYELKPIRTVDRFAIAGALLAVFVIHGCGVLWASAQLL	failed
MERLKLYFSYFKNKILKKYESKKAQSVIDTEEIKEEIWEADFSKKEKARFIEETGDGYQSLFEENLDGKHSYSLELKRKHLYAWALNPLFRYKDFVLDAEIELPVFTDNFFPEENTSAGYCAAGFVFRHISDKAFYSLLISDKGWIRLEAVVNSTPMPILGWTKPLTDIDSSKFKIKLICAGTSITVLVNNTWLGKFESDIVQAAGKIGFAGQNWETYPKVKFYLNEFKIISQPLLVENTDSAANNPDAISPEAYINLASTYYAMGQYVAAIYQIKQAWKLREPGIQDHILAGRIYFAQHLNEEAEKEFLHALDIEHDNYEIMAELAGLYYQSGNMKKLGDILKDIPNDEIEKSVLLCSLKGHFLNSQGKHEKSAAFYAKAFELKPDQGLLKYNEANELNLAGKTAEAVEAYTEAGKLFLASEEYNEMANVINALERIAPEDERTWALSGKFYYAVDNKWEAKLNFKKLCDAKTSDSTIWYLYGLLIHDEKPEEAVKFFKKACKLGPEHGLYHFRLAEALYLIGEDCSVPLSEAEALEPNNGWIFNLKALCAIDEDAFFDAQIEIEKARKMLPDEIVILENYVEIMRLQGRLKECAPLFDIEAGTADLAAERNRAEAFHIYANALFFDEQYDEADIWYQKALKLKPVDPVLLTDKAENSIKIGYLNDADGLLVKAMDIEPTERIYRLISLLAVKKGDHARAEVSLRQAIEEFGESEELLFDLTNLYIQTNRKEKAKETIKLLTNCEDQERLKELKALLKK	failed
MMCRSITLFLFALISIVVGKQLSAQSISELRLLIDSGRYDRALPIAQQLVAKNPKHADNNYMLGLLLYKAERYEEAIAPLRVAVSRRSDAYEMLADAYAKEYFFSEALAALEKQKVTLVKKKQETVSIDAGIDRMRRAVRLLDRAEWVEVIDSVRTNKADLLSAYNLIADNGRLEWVKGNQGEATSFVNGRGDHAIMTEKGEDGVYSLHEAHRIGGKWGNAIPLEKLNSRFNENYPSLRADGFTLLFASDRPDGIGGYDLYMTRRDLEDGIFLEPTLLGMPFNSPYNDYLLVYDELRGIGFFASDRFCPADVVTVYTFVINEEGRPVATDDMALKRAYASLKSIRATQDPERDYSRLIASARDNRTDAEKKASERQIYFPMQGMRIYTRWSDFQSSEAKSLYQDVMARKRKLEQAATRLEELRLLYGRASALERSGMKQEILRLENAIPPLEEEVGRMEKEVRNMELQAVQGF	failed
MRITVMTAGEQIITLDVDSQETVENVKALLEVESNVPIQQQQLLYNGNEMGNSDKLSALGVKDDDLLMMMVSNASSGSATSAAGNDLGMNPDGSALNPAAFQQHIRGDSNLMGQLFQNDPELAQVISGSDLNKLQDVLRARHRQRSVLQRQKEEELALLYADPFDVEAQRKIEAAIRQKGIDENWEAALEHNPEGFARVIMLYVDMEVNGVPLKAFVDSGAQSTIISKSCAERCGLLRLMDQRYKGIAHGVGQTEILGRIHVAPIKIGNNFYPCSFVVLDSPNMEFLFGLDMLRKHQCTIDLKENVMTVGGGEVSVPFLQEKDIPSRFLDEERVPNDASSSGATVPSGFTEKKNNTVANPTSQQPKRQNTSEGPEFEAKIAKLVELGFSRDSVIQALKLFEGNEEQAAGFLFGG	failed
MSSRQQDTAPCNHRFSGSVPVFSAAPCPHPAASFISLPAGSPYDEKRFVPAPRRHVPMLNYIWSGLIIGSLLFALTVDTQELVENRFRNETALPVALDFPDGYAPDARRQPVEIRIDSATYRDVYGVNAAPDPVYAGTLVQTQEGRKVEFDPDADLPEPLATIQSFHATDDNPALRGALQGTSRTTAGVGRTETALQFEPVRFRKLNDIAQAALNFAETAASLALSLIGVLGLMLGLVKIGEEAGLIESLTGIVQPILSPLFPNVPDDHPALANISLNLLANVFGLGNAATPLGIKAMEDLQELNPSDEKASDDMVMLLALNTSSVQLVPPSLLVAIMGLQINQLFFSITLATLCSTVAGILGTLALHRLPYFRATAPHRTADAEDPDE	failed
MVSVGGDSVADSTVNQAKQSIRRSESITMERIVSFTLEEVPESIAKLEDKLFSYLLDLEGLASGRQRQTMSGEVGFGVLKAIDDQTIQDRLHW	failed
MATGNTLLAVYRSRIGEPTTDDEAYGYWLFVIGIVLGIVGLLLFYLTASRSTPRQFGYLLGAIGLISLFAGPTIRLPLTRRGLILTYLGAVVGLVAMVWFTTFYPSNWTGPEGNPAVTLYIVGLGLMAVGAVVSPLLTGRKEAYDKAVQTAEDATEVAEQATQEADRASREATQQSQTADRATRERNRLAEQLATSEAAREELATVTEASEAELAAAHATIAAAMDSKATFELYEDAGGKYRWRLRHRNANVIADSAQGYSSRQKAMQGLRSVQSNAAGGAVVFFEDATEDDTAEDVPVVPAPESDATFELFEDSAGEFRWRLRHDNGNILADSGEGYASKSNVRRALQSVRAHVPGAAYLRVDPVAYEVYADAAGEFRWRLLHRNGNILADSGEGYSSRSNARRAARRVSELAPDSAVDDRFEVYEDAAEEWRWRLRADNGELIADSGEGYANRSKAMDAVERVQSYAADADLLAIGSAAFEVYEDKGEEWRWRLRHRNGKIIADSGEGYAERNKAVAAIERIKRHAPGATQEE	failed
MIFSSPSQKNHPVGGLEEVMAQGTFVQALRKEAALSSTFMKGRSLMLNGAVLSIEDSGSRFSKNVTLEGAVRGSRGDLYKTHVALDMDEHEVIDYDCDCPAAYRYPGMCKHAIATALAYLDASGIEPVEGLRTPVRTFTAAPKQAARPSSAAPAVNPNFPFPAPVPTSPSLMKALSDLSDARMDELAGMRRKLAGTVDPDAPKAVLEPSLVPYYNPLFADRFSWALELRIRCGSVSYVVKDIDGMAAAYVRGGTFSYGKKLTFLHAPEAFDEVSVRLLDLVVATVVYLSDITSSRSASYDFARSGFVAERQLPLSEHDIVYMLDLLRGRTISFEPAWSRGTTTHRSYEVAVELSPVGEDEASAKQPPLLAAKIAPAAGGSYDLRLPADTYCFVAGDAAYLVDTHRARRADAAFAQHAAPFLSRLLPCRTPVHIAAEQVGEFCRMALPVLREYTGLTAPAVLDTVAPEPSFAMAIGVDDGLVTCKITVSYGDWSADLFSLGAPGSPFEERRPGVPPRDEMAEFRVMDTAALYFDFYEGGLAFEERDDESLFHLLTEGLSALSELGEVMLSDRLRQVSVRPAPKLSVRATVKSNLLDVELGASGLSAADLAIYLDSYKRHQTFARLTSGDIIRLDEGARAAFGLAEDLGVDAVDLLDGVSLPASSTLFVDSMLARTPELEADRDAAFRRTVERLDTLGKMDFTVPVSLKATLRGYQVDGYQWLGSLEHLGLGGILADDMGLGKTLQMIAHILARVEAGDAKPTLVVCPASLVYNWTAELERFAPSLDVCAIVGAKAQRRVQIAGADEHNVVITSYDLMRRDIDEYAEQDFARVVLDEAQYIKNPLTQVAHAAKRLPAGVRFALTGTPIENRLSELWSIFDFLMPGLLGSRESFAKRFESPVEHAEGDSAARLQALVSPFVLRRVKEDVVADLPEKIEDTVMAQLTGEQRKLYLANQDRIAQQVQHREVSEFKKDKLKVLAELTKLRQICCDPHLHYEDYKAGSAKLDACMELVHGALDGGHHILLFSQFTGMLDIIGKRLAKEDIGFLKLTGASSKESRAKMVAQFQAGEVPVFLISLKAGGVGLNLTAADVVIHYDPWWNVAAQDQATDRAHRIGQQHTVTVYKLIAKDTIEERIMRMQESKRDLVNSVLGGDGISSALFTREDVLALLGGDGR	failed
MNGARKWFFPDGYIPNGKRGYLVSHESLCIMNTGDETAKIRITFLFEDSKPVVHEVEISPMKSLHLRLDKLGIPKCKPYSIMAESNVPVVMQLSRLDVGKNHYTLMTTIGYWEE	not failed
MASKSGSGGLREPPNEQAVLNMYEGKRSELSQIYSNITDLEMQVSEHSLVINAIQPLDQSRKCFRMIGGVLVERTIKEVLPAVQRNKDGLEEVVRKLYETLEKKKKDLTEFEAKYKIRITKQEDNKEGGNKKEGNAQGVLVGAASSSQ	failed
MARPHFALTSVFLASSVSLSAFGFSLPARAQSEDVAQKCQQPIKSVEASFAACTAAIDTGALSGKALAGAYIKRGFLRTRQRDLVGAEADLDAAIKANPDAADAYTTRANFWNVSGKPERALADADQAIKLDPNLPLAHFVRGSAELKLGHDDRAIADYSRAIELRPKESGEVYAVRGFAYHRKGDDIRAVADYTEALKAAPEDVGTLLNRGDARRNLRDTAGAAADYSEAIKLAPGNAGGFKGRGFIRLLTQDTGGAVADFTEAIRLSPSESGLYLNRASALGLQNQSLLALADEDMAIRLEPQHPLAYVNRAETLKLLGDKVAARASVTKALQLAPGFPPAVEVLKKLGEPKRSKEPSSEAAQEAYRRCTFPVTDLGPGEEGIKQIIKVCTLLVTAQGGSDANRALVHLQRGSMYRRQGDYQHALIDFSESLRYDPESALAYTGRGNAYRGLKLLDQALADHTEAIRLDPKYATAYNNRGNVWRDKNDLAKAIADFDRAIAISPNYAMAYFNRGNSRLESGDKEGAVADFQQTVKLSPQFKEAAERLQELGVRM	failed
PDQCKPPQVTCRSATCAQVNWEVPLSNGTDVTEYRLEWGGVEGSMQICYCGPGLSYEIKGLSPATTYYCRVQALSVVGAGPFSEVVACVTPPS	not failed
MISANDLSPAELAALLHFHADAGVEWLLEEEAIDRFAEFEAMKAARRPAAQAQQQRPAAGERPAPGQAQVRPNAAVRPAPAERAASGPQPAIPDGEAVQQARFVAETARSLVELKTAIESFNGCNLKHSARSTIFASGDAESGIMVIGSAPSAEDDREGMPFSGKSGQLFDKMLAAIGLTRSAILLTQVIPWRPPGNRAPSAAEMDICRPFIERQIALAEPKAILLLGNFSARFFFGENDTIHGLRGRWKEIAAADCVIPAIASLHPQDLLTAPVNKRLAWNDLLAFQAKLKSLSLLRN	failed
MTARYIAIDWGSTNLRAWLYQGEECLESRQSEAGVTRLNGRSPAAVLAEITQHWRDGATPVVMAGMVGSNVGWKIAPYLPLPAAFSDIGQQLTAVGDNIWIIPGLCVSRDDNHNVMRGEETQLLGARALAPSSVYVMPGTHCKWVLADRRQIHDFRTVLTGELHHLLLQLSLVGAGLPPQETSAAAFAAGLQRGINNPAVLPQLFEVRASHVLGALPREQVSEFLSGLLIGAEVATLSDTFAGQQAISLVAGSSLTSRYQQAFAAIGREVSAVAGDTAFQTGIRSIAYAVAN	not failed
RNKPKGHLRIAIGGSTACDVLIPLLADFMTSWPDIRINLQVADKPADLISGNIDSAIRGGPMEDSTLIARKIGEATLVTCATPGYLQRYGTPASPDELHHGHRLISYLSPASGRAFPFRFTRH	failed
